According to FireProtDB (doi:10.1038/75151):

B1: Cold shock protein CspB, P41016 (parent)
chain: MQRGKVKWFNNEKGYGFIEVEGGSDVFVHFTAIQGEGFKTLEEGQEVSFEIVQGNRGPQAANVVKL

Variants of: B1
Conditions: Bacillus caldolyticus, pH 7, Thermal, CD, Sodium cacodylate-HCl 0.1 M, reversible: yes, structure 1C9O, whole UniProt chain shown; for ddG of mutation (higher = less stable) / unfolding free energy: 70 °C

Row | Variant | Tm [°C] | change of melting temperature, mutant - wild type (higher = more stable) [°C] | unfolding enthalpy (van 't Hoff) [kcal/mol] | ddG of mutation (higher = less stable) (NaCl 2 M) [kcal/mol] | unfolding free energy (NaCl 2 M) [kcal/mol] | ddG of mutation (higher = less stable) [kcal/mol] | unfolding free energy [kcal/mol]
1 | R3E L66E | 44.6 | -32.3 | 36.8 | – | – | – | –
2 | R3E | 59.1 | -17.8 | 45.6 | 1 | 1.2 | – | –
3 | Q2L | 80.9 | 4 | 57.8 | -0.29 | 2.49 | -0.55 | 1.63
4 | Y15F | 76.7 | -0.2 | 56.6 | -0.07 | 2.27 | 0.05 | 1.03
5 | V64T | 75.1 | -1.8 | 58.3 | 0.19 | 2.01 | – | –
6 | L66A | – | – | – | 0.07 | 2.13 | – | –
7 | L66E | – | – | – | 1.27 | 0.93 | – | –
8 | T31S | 77.8 | 0.9 | 59.8 | -0.19 | 2.39 | -0.17 | 1.24
9 | Q53E | 76.1 | -0.8 | 58.8 | 0 | 2.2 | 0.1 | 0.98
10 | S24D | 77.8 | 0.9 | 61.7 | -0.19 | 2.39 | -0.22 | 1.29
11 | E46A | 75.4 | -1.5 | 57.6 | 0.12 | 2.08 | 0.22 | 0.86
12 | G23Q | 74.7 | -2.2 | 59.5 | 0.31 | 1.89 | 0.29 | 0.79
13 | N11S | 79.2 | 2.3 | 58.8 | -0.22 | 2.41 | -0.33 | 1.41
